The values that follow come from US20230141962A1.

The target in assay [1] is SARS-CoV-2 S1 Beta Variant (K417N, E484K, N501Y, D614G) (SARS-CoV-2), P0DTC2. The conditions noted are these: remark: other sources report otherwise.
Assay [2] concerns the target SARS-CoV-2 S1 (D614G) (SARS-CoV-2), P0DTC2. As to conditions: remark: other sources report otherwise.

B1: scFv clone #26 (scFv)
scFv: QAVLTQAPSASGTLGQQVTISCSGTTSNIGRNTVNWYQHLPGTAPKLLIFVSNQRPSGVPDRFSGSKSGTSASLVISGLQSEDEADYYCGAWDDSLDGMLFGGGTKLTVLGSRGGGGSGGGGSGGGGSLEMAQVQLVQSGAEVKKPGASVKVSCKASGYTFTSYGISWVRQAPGQGLEWMGWISAYNGNTNYAQKLQGRVTMTTDTSTSTAYMELRSLRSDDTAVYYCARGYYGDLDPWGQGTLVTVSSTSGQAGQ
Consider B1, for which the IC50 was 2.27 nM in assay [1] and 1.4 nM in assay [2].
